Km, kcat and kcat/Km data for 9 proteins are collected here from PMC9224512, “New Insights into the Determinants of Specificity in Human Type I Arginase: Generation of a Mutant That Is Only Active with Agmatine as Substrate” (International Journal of Molecular Sciences, 2022).

Substrate in data set [1]: N=C(N)NCCCCN
Kind of data set: Kinetic and inhibition studies, Chimera A2. The data set is classed as biochemical, human. The note with it: other: substrate = labelled compound, pH 9.5, 2 mM Mn2+.

Substrate in data set [2]: N=C(N)NCCCCN
The experiment in a line: Kinetic and inhibition studies, S137C-N139D mutant. The format is biochemical, human. The note with it: other: substrate = labelled compound, pH 9.5, 2 mM Mn2+.

Substrate in data set [3]: N=C(N)NCCCCN
Kind of data set: Kinetic and inhibition studies, triple mutant. The note with it: other: substrate = labelled compound, pH 9.5, 2 mM Mn2+. The format is biochemical, human.

Substrate in data set [4]: N=C(N)NCCCCN
Kind of data set: Kinetic and inhibition studies, N130D-N139D mutant. The format is biochemical, human. The note with it: other: substrate = labelled compound, pH 9.5, 2 mM Mn2+.

Substrate in data set [5]: N=C(N)NCCCCN
Kind of data set: Kinetic and inhibition studies, N139D mutant. The note with it: other: substrate = labelled compound, pH 9.5, 2 mM Mn2+. The data set is classed as biochemical, human.

Substrate in data set [6]: N=C(N)NCCCCN
The experiment in a line: Kinetic and inhibition studies, S137C mutant. The note with it: other: substrate = labelled compound, pH 9.5, 2 mM Mn2+. The format is biochemical, human.

Substrate in data set [7]: N=C(N)NCCCCN
Kind of data set: Kinetic and inhibition studies, N130D mutant. The data set is classed as biochemical, human. The conditions noted are these: other: substrate = labelled compound, pH 9.5, 2 mM Mn2+.

Substrate in data set [8]: N=C(N)NCCCCN
Kind of data set: Kinetic and inhibition studies, N130D-S137C mutant. The format is biochemical, human. The conditions noted are these: other: substrate = labelled compound, pH 9.5, 2 mM Mn2+.

Substrate in data set [9]: N=C(N)NCCCCN
The experiment in a line: Kinetic studies, E. coli agmatinase. The format is biochemical. The note with it: other: substrate = labelled compound; n/a = no activity with the substrate; pH 9.5. The protocol: All assays were initiated by adding the enzyme to a previously equilibrated buffer with the substrate in solution (the concentrations of used substrates were between 0.2–3 fold the Km). Urea was determined by a colorimetric method with α-isonitrosopropiophenone. The protein concentrations were determined by the Bradford’s method, with bovine serum albumin as standard. Initial velocity and enzymatic inhibition experiments were performed in duplicate and repeated three times. The inhibitory patterns were initially determined by double reciprocal plots and re-plots of intercepts and slopes versus inhibitor concentrations. […] Velocities are expressed as μmol of urea/10 min.

Where a chain is given by its changes, count along the chain named. In names and notes the source's numbering stands.

B1: Chimera A2 (I129T/N130Y/T131A+∆ P132-T134) of human arginase type I (Homo sapiens; DEL129-131/I129T/L133Y/N130Y/P132T/T134A) (protein)
chain: MSAKSRTIGIIGAPFSKGQPRGGVEEGPTVLRKAGLLEKLKEQECDVKDYGDLPFADIPNDSPFQIVKNPRSVGKASEQLAGKVAEVKKNGRISLVLGGDHSLAIGSISGHARVHPDLGVIWVDAHTDTYATTSGNLHGQPVSFLLKELKGKIPDVPGFSWVTPCISAKDIVYIGLRDVDPGEHYILKTLGIKYFSMTEVDRLGIGKVMEETLSYLLGRKKRPIHLSFDVDGLDPSFTPATGTPVVGGLTYREGLYITEEIYKTGLLSGLDIMEVNPSLGKTPEEVTRTVNTAVAITLACFGLAREGNHKPIDYLNPPK
notes: made in house; host or cells: E. coli JM109
As to B1, in data set [1], the Km (commonly the concentration of substrate that gives half-maximal velocity) came to 6000 ± 1000 µM; the kcat (in general, the number of substrate molecules converted per active site and unit of time at saturation) is 1.1 ± 0.2 s⁻¹; the kcat/Km (usually the turnover number divided by the Michaelis constant) came to 180 M⁻¹ s⁻¹.

B2: human arginase type I S137C-N139D (Homo sapiens; N139D/S137C) (protein)
chain: MSAKSRTIGIIGAPFSKGQPRGGVEEGPTVLRKAGLLEKLKEQECDVKDYGDLPFADIPNDSPFQIVKNPRSVGKASEQLAGKVAEVKKNGRISLVLGGDHSLAIGSISGHARVHPDLGVIWVDAHTDINTPLTTTCGDLHGQPVSFLLKELKGKIPDVPGFSWVTPCISAKDIVYIGLRDVDPGEHYILKTLGIKYFSMTEVDRLGIGKVMEETLSYLLGRKKRPIHLSFDVDGLDPSFTPATGTPVVGGLTYREGLYITEEIYKTGLLSGLDIMEVNPSLGKTPEEVTRTVNTAVAITLACFGLAREGNHKPIDYLNPPK
notes: as for B1
Turning to B2, in [2], the Km is 900 µM, the kcat worked out at 1.1 s⁻¹ and the kcat/Km stood at 1200 M⁻¹ s⁻¹.

B3: human arginase type I N130D-S137C-N139D (Homo sapiens; N130D/N139D/S137C) (protein)
chain: B2 chain with N130D
notes: as for B1
In the case of B3, in data set [3], the Michaelis constant (Km) amounted to 1600 µM, the kcat worked out at 0.9 s⁻¹ and the kcat/Km stood at 560 M⁻¹ s⁻¹.

B4: human arginase type I N130D-N139D (Homo sapiens; N130D/N139D) (protein)
chain: B2 chain with N130D, C137S
notes: as for B1
For the protein B4, in data set [4], the Km was determined as 1100 µM, the kcat turned out to be 1.6 s⁻¹ and the kcat/Km came to 1400 M⁻¹ s⁻¹.

B5: human arginase type I N139D (Homo sapiens; N139D) (protein)
chain: B2 chain with C137S
notes: as for B1
Take B5: in [5], the Km came to 5300 µM, the kcat came out at 1.3 s⁻¹ and the kcat/Km was 250 M⁻¹ s⁻¹.

B6: human arginase type I S137C (Homo sapiens; S137C) (protein)
chain: B2 chain with D139N
notes: as for B1
Turning to B6, in [6], the Michaelis-Menten constant (Km) came to 7500 µM, the kcat came out at 1.8 s⁻¹ and the kcat/Km is 240 M⁻¹ s⁻¹.

B7: human arginase type I N130D (Homo sapiens; N130D) (protein)
chain: B2 chain with N130D, C137S, D139N
notes: as for B1
For the protein B7, in [7], the Km was found to be 1400 µM, the kcat was 3 s⁻¹ and the kcat/Km came to 2100 M⁻¹ s⁻¹.

B8: human arginase type I N130D-S137C (Homo sapiens; N130D/S137C) (protein)
chain: B2 chain with N130D, D139N
notes: as for B1
For B8, in [8], the Km was 1700 µM, the kcat is 2.3 s⁻¹ and the kcat/Km was found to be 1300 M⁻¹ s⁻¹.

B9: E. coli agmatinase (Escherichia coli K-12) (protein)
chain: MSTLGHQYDNSLVSNAFGFLRLPMNFQPYDSDADWVITGVPFDMATSGRAGGRHGPAAIRQVSTNLAWEHNRFPWNFDMRERLNVVDCGDLVYAFGDAREMSEKLQAHAEKLLAAGKRMLSFGGDHFVTLPLLRAHAKHFGKMALVHFDAHTDTYANGCEFDHGTMFYTAPKEGLIDPNHSVQIGIRTEFDKDNGFTVLDACQVNDRSVDDVIAQVKQIVGDMPVYLTFDIDCLDPAFAPGTGTPVIGGLTSDRAIKLVRGLKDLNIVGMDVVEVAPAYDQSEITALAAATLALEMLYIQAAKKGE
On to B9, for which, in data set [9], the Km was 1100 µM, the kcat came to 120 s⁻¹ and the kcat/Km stood at 110000 M⁻¹ s⁻¹.
